In US20140328838A1 (NVIP, published 2014):

Experiments:
human TNF = target: T1, human TNF (human, UniProt P01375 77-233); experiment: ELISA (FIG. 16 panel B)
T1 construct: also called huTNF

canine TNF alpha [1] = target: T2, canine TNF alpha (canine, UniProt P51742 77-233); experiment: ELISA, canine TNF alpha coated; antibody 5 to 0.05 µg/ml (FIG. 14B)
T2 construct: Coated at 5 ug/ml in the ELISA; Used at 1 ng/mL in the reporter assay

canine TNF alpha [2] = target: T2, canine TNF alpha; experiment: ELISA (FIG. 16 panel C)

T1 sequence (P01375 77-233 limits assumed): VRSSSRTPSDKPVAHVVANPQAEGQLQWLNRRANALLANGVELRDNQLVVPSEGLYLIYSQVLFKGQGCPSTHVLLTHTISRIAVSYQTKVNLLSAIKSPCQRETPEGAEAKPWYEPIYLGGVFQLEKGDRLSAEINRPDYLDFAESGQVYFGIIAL
T2 sequence (P51742 77-233 limits assumed): as the sequence (P01375 77-233 limits assumed) above, with R2K, Q21E, N30S, R44T, V49I, E53D, I83F, A109T, R138L, D140N counted along it

Row | binding result (human TNF) | binding result (canine TNF alpha [1]) | binding result (canine TNF alpha [2]) | Binder
1 | binds | binds |  | caninised anti-TNF monoclonal antibody based on D2E7 (ca-HCB+ca-kLC) (antibody, V domains shown, also called caninised (Ca) D2E7 based MAb; canine PETised D2E7) VH: not shown VL: DIVMTQSPASLSLSQEEKVTITCRASQGIRNYLAWYQQKPGQAPKLLIYAASTLQSGVPSRFSGSGSGTDFTLTISSLEPEDVAVYYCQRYNRAPYTFGQGTKVEIKR
2 | binds |  | no binding | caninised anti-huTNF MAb 148 (antibody, V domains shown, Expressed in CHO cells and purified by Protein A chromatography) VH: EVQLVESGGGVVQPGGSLRLSCAASGFIFSSYAMRWVRQAPGKGLEWVAFMSYDGSNKKYADSVKGRFTISRDNSKNTLYLQMNSLRAEDTAVYYCARDRGIAAGGNYYYYGMDVWGQGTSVTVSS VL: EIVMTQSPASLSLSPGEKATISCRASQSVYSYLAWYQQKPGQAPRLLIYDASNRATGVPSRFSGSGSGTDFTLTISSLEPEDVAVYYCQQPSNWPPFTFGPGTKVDIKR
